Article PMC6127106, “Apolipoprotein A-IV binds αIIbβ3 integrin and inhibits thrombosis” (Nature Communications, 2018)

Target: purified human platelet αIIbβ3 integrin (human, UniProt P05106 27-788)
Assay: ELISA; competition: αIIbβ3 (1 µg) immobilised on the plate, Fg 1 µM with apoA-IV 0–10 µM; TBS, 0.05% Tween-20, 1 mM each MgCl2, MnCl2, CaCl2; 1 h at 37 °C; anti-fibrinogen IgG and anti-mouse IgG-HRP
Conditions: both partners purified

B1: recombinant human apoA-IV (ligand, UniProt P06727 21-396, looked up)
chain: EVSADQVATVMWDYFSQLSNNAKEAVEHLQKSELTQQLNALFQDKLGEVNTYAGDLQKKLVPFATELHERLAKDSEKLKEEIGKELEELRARLLPHANEVSQKIGDNLRELQQRLEPYADQLRTQVSTQAEQLRRQLTPYAQRMERVLRENADSLQASLRPHADELKAKIDQNVEELKGRLTPYADEFKVKIDQTVEELRRSLAPYAQDTQEKLNHQLEGLTFQMKKNAEELKARISASAEELRQRLAPLAEDVRGNLRGNTEGLQKSLAELGGHLDQQVEEFRRRVEPYGENFNKALVQQMEQLRQKLGPHAGDVEGHLSFLEKDLRDKVNSFFSTFKEKESQDKTLSLPELEQQQEQQQEQQQEQVQMLAPLES
notes: apolipoprotein A-IV, human; also called rH-ApoA-IV; rH-apoA-IV; source: E. coli, purified (His GraviTrap IMAC, tag cut with TEV protease); not shown: His6, N-terminal, cleaved
IC50: 1.32 µM
